Experiments:
A-peak-BSA = A-peak-BSA (Bos taurus, UniProt P02769); experiment: Suppression test of DAB oxidation of A-peak-BSA (Example 32); type: biochemical; details: PB-1 1.8 mg/mL; A-peak-BSA 2 mg/mL; white LED 3000 lux overnight
Experimental: Diaminobenzidine (DAB, Dojindo Laboratories) was prepared into 5 mg/mL in a PBS solution. A-peak-BSA (2 mg/mL, PBS solution) was prepared in the same way as in Example 24. 10 μL of the DAB solution was added to a 0.6 mL microtube (Watson), and 100 μL of PBS, the PB-1 antibody (1.8 mg/mL), or a mouse IgG isotype control (Ctrl-mIgG, Thermo Fisher Scientific Inc.) was further added thereto. After stirring with a vortex mixer, 10 μL of the A-peak-BSA solution was added thereto. These solutions were stirred with a vortex mixer and then irradiated overnight with white LED (3000 lux). The solutions thus irradiated with light were stirred with a vortex mixer, then spun down, and recovered at 100 μL/well into Violamo 96-well plate (AS ONE Corp.).
Absorbance at a wavelength of 460 nm was measured with a microplate reader (Cytation 5, BioTek Instrument Inc.) to detect oxidized DAB. The ordinate of the graph depicts a relative value to oxidized DAB detected in the antibody-untreated group (PBS addition group).

mouse retinal tissue = experiment: Retinal tissue staining of diabetic mouse and control mouse (Example 36); details: diabetic mice compared with control mice; antibody 1 mg/mL diluted 500-fold; Alexa 594 secondary
Experimental: A C57BL6/J mouse (CLEA Japan, Inc.) on 13 days of pregnancy was purchased, and child mice were obtained. For diabetic mice, streptozotocin (FUJIFILM Wako Pure Chemical Corp.) was dissolved at 5 mg/mL in saline (Otsuka Pharmaceutical Co., Ltd.) and subcutaneously administered at 300 μL to a male child mouse 2 days after birth. For control mice, saline was subcutaneously administered at 300 μL to a male child mouse 2 days after birth. After living together with the mother mouse for 4 weeks and subsequent weaning, the diabetic mice were raised with HFD32 (CLEA Japan, Inc.) for 8 weeks. The control mice were raised with CE-2 (CLEA Japan Inc.) for 8 weeks.
1.875 mL of Domitor (Nippon Zenyaku Kogyo Co., Ltd.), 2 mL of midazolam (Sandoz K.K.), 2.5 mL of Vetorphale (Meiji Seika Pharma Co., Ltd.), and 18.625 mL of saline were mixed to prepare a three drug-mixed anesthetic. The body weight of each mouse was measured with a scale (TANITA Corp.), and the three drug-mixed anesthetic was intraperitoneally administered at […]. […]
Acetone (FUJIFILM Wako Pure Chemical Corp.) was incubated for 16 hours or longer in a freezer (Fukushima Industries Corp.) set to −30° C. to prepare cold acetone. […] Then, the fluorescence of Alexa 594 in the retina was observed under a confocal laser microscope (Olympus Corp.).

GAL13-BSA = biological target: T1, GAL13-BSA (Bos taurus, UniProt P02769); experiment: Dissociation constant measurement, Biacore T200 (Example 8); type: binding; details: Biacore T200, sensor chip CM5; ligand GAL13-BSA
T1 construct: purchased Sigma-Aldrich Co. LLC
Experimental: The dissociation constant (Kd value) of the monoclonal antibody SJ-5 was measured by the following approach: BSA containing AGEs derived from glyceraldehyde (Glycer-AGEs-BSA) was diluted with a 10 mM sodium acetate solution (pH 4.0) to prepare a ligand solution with a final concentration of 100 μg/mL. Biacore T200 (GE Healthcare Japan Corp.) was used for the immobilization of the ligand and the calculation of the KD value. The ligand solution was immobilized onto sensor chip CM5 (GE Healthcare Japan Corp.) using an amine coupling kit (GE Healthcare Japan Corp.). Subsequently, antibody dilution solutions containing the monoclonal antibody diluted into concentrations from 0 to 400 nM were prepared, and the Kd value was calculated.
BSA chemically bonded to the peak obtained in fractionation by HPLC (GAL13-BSA) was diluted with a 10 mM sodium acetate solution (pH 5.0) to prepare a ligand solution with a final concentration of 25 μg/mL.

Sequence of A-peak-BSA (P02769 25-607): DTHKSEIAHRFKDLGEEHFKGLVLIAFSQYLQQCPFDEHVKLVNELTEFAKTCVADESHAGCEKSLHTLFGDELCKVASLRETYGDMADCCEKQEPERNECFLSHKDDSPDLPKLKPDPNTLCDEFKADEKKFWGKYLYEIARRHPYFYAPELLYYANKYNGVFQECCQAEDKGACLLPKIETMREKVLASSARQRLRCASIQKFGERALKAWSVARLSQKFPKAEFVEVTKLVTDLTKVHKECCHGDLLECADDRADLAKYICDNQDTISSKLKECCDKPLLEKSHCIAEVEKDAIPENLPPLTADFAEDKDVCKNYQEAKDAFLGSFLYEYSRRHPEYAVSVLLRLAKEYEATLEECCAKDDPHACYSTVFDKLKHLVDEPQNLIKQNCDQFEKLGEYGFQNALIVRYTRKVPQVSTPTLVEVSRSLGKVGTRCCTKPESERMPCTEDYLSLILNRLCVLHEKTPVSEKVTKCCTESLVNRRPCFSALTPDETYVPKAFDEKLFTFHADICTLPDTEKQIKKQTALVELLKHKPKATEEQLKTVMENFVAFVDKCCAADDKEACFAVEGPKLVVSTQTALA
T1 sequence (P02769 25-607): as above

oxidized DAB (absorbance at 460 nm) compared with PBS or Ctrl-mIgG treatment group (A-peak-BSA)	Kd (GAL13-BSA) [nM]	Molecule	staining of retinal ganglion cell layer, internal and external granular layers, retinal pigment epithelial cell layer (mouse retinal tissue)
largely decreased	–	PB-1: mouse monoclonal antibody raised against A-peak-BSA; heavy-chain variable region SEQ ID NO 18, light-chain variable region SEQ ID NO 22 (antibody, listed as Mus musculus, V domains shown) VH: EVRLQQSGPELVKPGTSVKISCKASGYSFTGYYMHWVKQSPVKSLEWIGRIIPYNGATSYNQNFKDKASLTVDKSSRTAYMDLHSLTSEDSAVYYCARSRYYGRAPYYFDYWGQGTTLTVSS VL: DVVVTQTPLSLPVSLGDQASISCRSSQSIVHSNGNTYLEWYLQKPGQSPKLLIYKVSNRFSGVPDRISGSGSGTDFTLKISRVEAGDLGVYSCFQGSHVPFTFGSGTKLEIK	bind strongly
–	87.5	SJ-5: mouse monoclonal antibody raised against GAL13-MSA; heavy-chain variable region SEQ ID NO 4, light-chain variable region SEQ ID NO 8 (antibody, listed as Mus musculus, V domains shown) VH: EVMLVESGGRLVKPGGSLKLSCAASGFTFSSYGMSWVRQTPEKRLEWVATISGGGSYTYYPDSVKGRFTISRDNVKNNLYLQMSSLRSEDTALYYCARRGAYGDYGWFAYWGQGTLVTVSA VL: DIVLTQSPATLSVTPGDSVSLSCRASQSINNNLHWYQQKSHESPRLLIKCASQSISGIPSRFSGSGSGTDFTLSINSVETEDFGMYFCQQSNSWPLTFGAGTKLELK	–

— patent US12391751B2, “Antibody against advanced glycation end products and use thereof” (Bloom Technology Corporation, priority 2018, dated 2025)
